Measurements from patent US20050042213.

Tests used:
[1] = test system: T1, Z-Pro-Lys-Lys-Glu-AMC (Peptide 1)
T1 sequence: PKKE

[2] = test system: T2, pro-heparanase (H60), purified recombinant human 60 kDa latent heparanase
T2 sequence: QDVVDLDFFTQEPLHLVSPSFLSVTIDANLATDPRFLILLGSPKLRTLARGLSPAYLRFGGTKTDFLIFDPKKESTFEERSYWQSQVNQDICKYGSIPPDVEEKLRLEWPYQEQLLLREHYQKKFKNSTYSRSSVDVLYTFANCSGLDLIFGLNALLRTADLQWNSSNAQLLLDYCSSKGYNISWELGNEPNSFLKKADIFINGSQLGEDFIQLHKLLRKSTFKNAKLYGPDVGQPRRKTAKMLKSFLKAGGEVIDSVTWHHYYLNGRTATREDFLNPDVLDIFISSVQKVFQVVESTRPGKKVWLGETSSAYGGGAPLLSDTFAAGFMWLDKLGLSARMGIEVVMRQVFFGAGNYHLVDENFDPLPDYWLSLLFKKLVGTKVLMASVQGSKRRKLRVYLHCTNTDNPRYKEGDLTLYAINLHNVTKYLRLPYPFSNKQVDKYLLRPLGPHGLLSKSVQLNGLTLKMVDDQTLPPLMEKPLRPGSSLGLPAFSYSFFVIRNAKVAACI

Z-Arg-Arg-AMC = test system: T3, Z-Arg-Arg-AMC
T3 sequence: RR

For Cathepsin B, the Activity (δfluorescence) (δfluorescence) [1] was 8930, the “heparanase activity after treatment (DMB assay)” value [2] was “Cathepsin B did not activate the pro-heparanase” and the “processing of pro-heparanase in vitro (Western blot)” value [2] was “Cathepsin B in the presence of heparin but not when the cathepsin B inhibitor CA074 was added, also processed the pro-heparanase”. It also gave an Activity (δfluorescence) (δfluorescence) (Z-Arg-Arg-AMC) of 53300.

For Cathepsin D, the “heparanase activity after treatment (DMB assay)” value [2] was “Cathepsin D treatment caused an increase in heparanase activity and pepstatin A inhibited this activation” and the “processing of pro-heparanase in vitro (Western blot)” value [2] was “When heparin was included in the reaction mixture, heparanase was processed by cathepsin D and a 45 kDa polypeptide was detected”.

Cathepsin L showed an Activity (δfluorescence) (δfluorescence) [1] of 0.
